Common to all, as to test: SPR
Assay [1] addresses VRC01 expressed transiently in WT N. benthamiana (VRC01WT) (human).
Assay [2] deals with VRC01 expressed in the ΔXT/FT N. benthamiana plant line (VRC01ΔXF) (human).
For assay [3], the target named is VRC01 co‐expressed with human β1,4‐galactosyltransferase in the ΔXT/FT plant line (VRC01Gal) (human).
The target in assay [4] is VRC01 antibody derived from HEK cells (VRC01HEK) (human).

Bounds are passed on as bounds.

VRC01 expressed in the ΔXT/FT N. benthamiana plant line (VRC01ΔXF) (human), sequence (light, as listed by the source, chain 2 of 2, other chains not shown): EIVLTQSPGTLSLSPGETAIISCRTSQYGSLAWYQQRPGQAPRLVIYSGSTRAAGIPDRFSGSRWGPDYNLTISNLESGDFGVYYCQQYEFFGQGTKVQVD
VRC01 antibody derived from HEK cells (VRC01HEK) (human), sequence (light, as listed by the source, chain 2 of 2, other chains not shown): as above
VRC01 expressed transiently in WT N. benthamiana (VRC01WT) (human), sequence (light, as listed by the source, chain 2 of 2, other chains not shown): as above
VRC01 co‐expressed with human β1,4‐galactosyltransferase in the ΔXT/FT plant line (VRC01Gal) (human), sequence (light, as listed by the source, chain 2 of 2, other chains not shown): as above

B1: recombinant human FcγRIIa ectodomain, polymorphic variant R131 (receptor)
chain: QAAAPPKAVLKLEPPWINVLQEDSVTLTCQGARSPESDSIQWFHNGNLIPTHTQPSYRFKANNNDSGEYTCQTGQTSLSDPVHLTVLSEWLVLQTPHLEFQEGETIMLRCHSWKDKPLVKVTFFQNGKSQKFSRLDPTFSIPQANHSHSGDYHCTGNIGYTLFSSKPVTITVQVPSMGSSSPMG
modifications: not checked
Regarding B1, the Kd in assay [1] was over 7000 nM; in assay [2] it was 780 nM; in assay [3], 1500 nM; in assay [4], 937 nM.

What is called Kd is a measure of binding affinity in units of concentration. A lower Kd goes with a tighter complex.

The values are drawn from paper PMC6953194.
